The supplement of paper PMC10126150
± gives the standard deviation of the averaged measurements.

tested on: ATP; assay: switch fluorescence ratio, 500 uM ATP over buffer (Cy3 cluster intensity, sum of 5 cycles each) (fold (ratio)); higher = stronger signal-on switching upon ATP binding; sequences stand for … in TCGTCGGCAGCGTCAGATGTGTATAAGAGACAGTTTTTTTTTTTTTTTTTTTTTTTTT…TC; conditions: aptamer strand: ATP DNA aptamer (quencher-CACCTGGGGGAGTATTGCGGAGGAAGG + anchor), 100 nM annealed; ATP concentration: 500 uM
In short: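 For every switch-domain sequence, the fluorescence ratio is the mean of per-cluster values, each being summed target-cycle Cy3 intensity over summed buffer-cycle Cy3 intensity. Clusters outside 100-1000 RFU were excluded. On a modified Illumina MiSeq flow-cell, the Cy3-labelled switching-strand clusters were annealed to 100 nM quencher-labelled ATP aptamer, imaged in selection buffer and then after 15 min with 500 uM ATP at 22 °C. Five such cycles were run, with NaOH stripping and re-annealing between them.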
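Further: ATP exposure 15 min at 22 °C before imaging.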

| Sequence | switch fluorescence ratio |
| --- | --- |
| AAGAGGGGAT | 0.985 ± 0.031 |
| AGTGTTGTGC | 1.01 ± 0.033 |
| TAAAGAAGTG | 1.01 ± 0.033 |
| TTGTAAAATG | 0.996 ± 0.013 |
| GTGTTATGAT | 0.9574 ± 0.0068 |
| ATATAATGAT | 1.02 ± 0.02 |
| GTGGTTTGGG | 0.988 ± 0.06 |
| GTCTGAAGGG | 1.0152 ± 0.0004 |
| TGGGTCTAGT | 0.9975 ± 0.0042 |
| GTTGTAACGT | 0.988 ± 0.054 |
| CGGTGAGTTG | 1.03 ± 0.04 |
| GCCTTTAGCT | 0.943 ± 0.011 |
| TTTGAGAAGC | 0.992 ± 0.026 |
| ACGGCCTGGG | 1.03 ± 0.03 |
| TTGCTATATT | 1.01 ± 0.032 |
| TTTTTCAGTG | 0.991 ± 0.039 |
| TTACGAGATT | 1.01 ± 0.068 |
| TAGCGGGGGA | 1.04 ± 0.019 |
| GCTGGGTGCT | 0.984 ± 0.015 |
| CCATTTTGCA | 1.04 ± 0.05 |
| CATCGCTATG | 1.096 ± 0.0097 |
| TAGGGGGTGT | 0.991 ± 0.018 |
| AATGATGTGG | 0.998 ± 0.021 |

| Sequence | switch fluorescence ratio |
| --- | --- |
| CATGGGTTGC | 0.99 ± 0.029 |
| GGGGTGTATT | 0.984 ± 0.025 |
| TAGCATTTTT | 1.07 ± 0.14 |
| TGCGTCGGTG | 1.03 ± 0.049 |
| TCGAGATTAG | 0.9942 ± 0.0086 |
| ATTGTTGTTT | 0.981 ± 0.019 |
| GAAAGAGAGT | 0.987 ± 0.023 |
| TGAGTTCGGC | 1.03 ± 0.015 |
| GATGTCAGGT | 1.03 ± 0.044 |
| TTTTTTGGGC | 0.99 ± 0.068 |
| GCTCGTAGTG | 1 ± 0.047 |
| ATTGTTAAGC | 1.02 ± 0.075 |
| TGTGAGGCTA | 1.03 ± 0.012 |
| CGATATCTAC | 1.06 ± 0.016 |
| GTATGAATGT | 0.985 ± 0.03 |
| TCGATACGAT | 0.994 ± 0.018 |
| CATTACAGTG | 1.01 ± 0.014 |
| CCGTATGTGC | 1.751 ± 0.0087 |
| ATATCTATGG | 0.994 ± 0.025 |
| TAGAGAAGCC | 1.04 ± 0.025 |
| GTGGGTAATT | 0.995 ± 0.033 |
| TATGATGTGC | 0.969 ± 0.017 |
| TCATGGGCGC | 1.01 ± 0.014 |

| Sequence | switch fluorescence ratio |
| --- | --- |
| TGTGTGTGGG | 1.03 ± 0.012 |
| AGCATTACGT | 2.02 ± 0.089 |
| TCCTTTAGCC | 1.23 ± 0.015 |
| CGGATGATGA | 1.02 ± 0.089 |
| TTTAAAAGGG | 1 ± 0.027 |
| TATTACACTG | 1.03 ± 0.033 |
| TATGTTACGG | 1.03 ± 0.0075 |
| GTTGAAGGAT | 1.003 ± 0.0036 |
| GGAGTGATTT | 1 ± 0.017 |
| GTGGCTAACG | 0.972 ± 0.06 |
| TATTAGTGGC | 0.9403 ± 0.0088 |
| TAATGCTAAT | 1.07 ± 0.073 |
| TCCTATACTA | 1.035 ± 0.0094 |
| GTGGAAGGGC | 1.03 ± 0.079 |
| TTGACTAAGG | 1.01 ± 0.044 |
| TTTCGGGCAG | 1.02 ± 0.037 |
| ATAACGTACT | 1.84 ± 0.18 |
| TCCTTCTCTT | 1.05 ± 0.021 |
| TTATGGGTTG | 1.002 ± 0.0039 |
| AGTTTTTGTC | 0.953 ± 0.048 |
| TCCTGGAGGA | 0.989 ± 0.05 |
| AGAGTGTGGG | 1.02 ± 0.033 |
| ATATAGTTGT | 0.999 ± 0.016 |

| Sequence | switch fluorescence ratio |
| --- | --- |
| GGGGGGTGGG | 0.996 ± 0.039 |
| CGTATATTGT | 0.983 ± 0.061 |
| GCGTTATTTT | 1.012 ± 0.0076 |
| TGGAGAAGTA | 1.09 ± 0.2 |
| TATTGACAGA | 1.022 ± 0.0053 |
| ACTGGTATGG | 1.01 ± 0.025 |
| ATAGGTCTAT | 1.04 ± 0.065 |
| TTTTTCTTTG | 1.04 ± 0.065 |
| GTGGGGAGTG | 1.01 ± 0.045 |
| TTGCGAGGTG | 1.039 ± 0.0055 |
| TGGTGGTGGC | 0.981 ± 0.0072 |
| TTACACGGGG | 0.969 ± 0.036 |
| GTGTAAAAGC | 1.03 ± 0.011 |
| ACCAAGGGAG | 1.037 ± 0.0064 |
| ACATGAGGGG | 1.026 ± 0.0094 |
| GGGGGGCAAA | 1 ± 0.015 |
| TAAGAGATTG | 1.01 ± 0.022 |
| TAGGAGGGT | 1.033 ± 0.0037 |
| GTTGCTACCA | 1.01 ± 0.053 |
| CAGCCCTATA | 1.04 ± 0.047 |
| AATTTTGCTG | 0.9662 ± 0.0053 |
| TGGTAGTCGT | 0.994 ± 0.043 |
| ATAGACGTTT | 0.994 ± 0.053 |

| Sequence | switch fluorescence ratio |
| --- | --- |
| ATAGTCGCCC | 1.009 ± 0.0031 |
| ATGTTTTATC | 0.994 ± 0.016 |
| TGAATATTGT | 1.04 ± 0.051 |
| TGATGAGGAG | 0.996 ± 0.014 |
| ATAGGGCAGC | 1.03 ± 0.04 |
| TCATGTACGT | 1.06 ± 0.028 |
| AGAGAGACGG | 0.997 ± 0.026 |
| AACCCGGGGT | 0.99 ± 0.045 |
| AAACTAGCTG | 1 ± 0.025 |
| GCAGCAAAAG | 1.029 ± 0.0029 |
| GCTTCCTTTT | 1.01 ± 0.022 |
| CGTTGCAGT | 0.986 ± 0.011 |
| CGGGGGGGTC | 1 ± 0.036 |
| ACTTTGTTCT | 1 ± 0.027 |
| ATGGTAGCGC | 1 ± 0.039 |
| TTACTGGAAC | 1.06 ± 0.021 |
| GACGCGGATG | 1.04 ± 0.02 |
| ACTGGGGTTT | 0.982 ± 0.024 |
| TTCCTTTCAA | 1.228 ± 0.012 |
| TGGGTATGAA | 0.977 ± 0.019 |
| AGCATCATTT | 0.971 ± 0.024 |
| CTTTTGAGGA | 0.9952 ± 0.0042 |
| AAGTTTCTG | 0.9892 ± 0.0025 |

| Sequence | switch fluorescence ratio |
| --- | --- |
| CGGTTTTATT | 0.982 ± 0.028 |
| TGGGAAGGTG | 1.7 ± 0.33 |
| TTCGGGTGCC | 1.03 ± 0.057 |
| CTCGTAGGGA | 1.01 ± 0.027 |
| TAAGATCTGG | 1.006 ± 0.0021 |
| CGGGTTAAAC | 1 ± 0.027 |
| ACACGTTTTT | 1 ± 0.014 |
| CGGGCGGTGG | 0.9829 ± 0.0069 |
| CAGTCCATTA | 1.011 ± 0.0093 |
| TTAGGGGAGT | 1.02 ± 0.066 |
| TTTTTCGTGT | 0.975 ± 0.038 |
| GTGTGGGAGT | 0.9963 ± 0.0016 |
| TTACGGGGAT | 1.04 ± 0.016 |
| GGGAACATTT | 1.022 ± 0.0086 |
| TTGTCACGGG | 1.02 ± 0.05 |
| GGTATGTTTG | 0.96 ± 0.043 |
| TCGGGCTGGT | 0.977 ± 0.011 |
| GGGTCAACGA | 1.03 ± 0.051 |
| ATTGAGTCTG | 1.02 ± 0.047 |
| GGGATGAGGT | 1 ± 0.033 |
| TGTATTTTTA | 1.01 ± 0.029 |
| TTTTCGTCCT | 1.18 ± 0.18 |
| TTTGAGGACT | 0.992 ± 0.025 |

| Sequence | switch fluorescence ratio |
| --- | --- |
| TTTGGGTTAC | 1.04 ± 0.044 |
| ATTATTTGTC | 1.01 ± 0.044 |
| TGGTTTCCTT | 0.955 ± 0.025 |
| GTGGATTTTT | 0.991 ± 0.015 |
| TCGAAGGGGG | 1.1 ± 0.16 |
| TCGTTATTCT | 1.04 ± 0.067 |
| TTCGAACACG | 0.994 ± 0.028 |
| GCTTGAGATT | 0.986 ± 0.015 |
| GGGGCTTTGG | 0.98 ± 0.025 |
| TTTATTATGG | 0.989 ± 0.032 |
| TCTATAAGGT | 0.99 ± 0.022 |
| CGATGTGTGG | 0.986 ± 0.015 |
| CGTTTGGCAG | 1.019 ± 0.0025 |
| TTTGGGATCT | 0.9881 ± 0.0098 |
| AGTTTAGGGG | 0.9796 ± 0.0016 |
| GTGAAAGGCA | 1.004 ± 0.005 |
| ATCGGGACGA | 0.955 ± 0.0099 |
| ATTATATCGG | 0.9981 ± 0.0031 |
| TTTTTAGGAA | 1.04 ± 0.055 |
